Results on four molecules are retold here after patent US20190309069A1 (SHANGHAI HENGRUI PHARMACEUTICAL, published 2019).

In general, Kd refers to the concentration at which binding is half-saturated. Read a high Kd as lower affinity. One may read the IC50 as the concentration that gives 50% inhibition. The term EC50 denotes the concentration that produces a half-maximal response.

The target of test [1] is T1, PD-1 His protein (Beijing Sino Biological Inc.) (UniProt Q15116 25-167, limits assumed).
T1 construct: Bought reagent, analyte in the Biacore assay; not shown: His tag
As to the kind of experiment: Biacore SPR as in Example 5, PD-1 His as analyte. The procedure:
According to the instruction of a kit provided by Biacore, the test PD-1 antibody of the present invention was covalently linked to CM5 (GE) chip using a standard amino coupling method. Then a series of gradient concentrations of PD-1 His protein (Beijing Sino Biological Inc.), which were diluted in the same buffer, were loaded into each cycle successively. After that, the samples were regenerated with regenerated reagent in the kit. The antigen-antibody binding kinetics was tracked for 3 minutes and the dissociation kinetics was tracked for 10 minutes. The data obtained was analyzed by GE's BIAevaluation software using 1:1 (Langmuir) binding model.
(§1) Humanized antibodies were subjected to ELISA binding assay (method is the same as that of Example 2), ligand binding blocking assay (method is the same as that of Example 2), and affinity kinetics experiment (method is the same as that of Example 5) in vitro.
(In SPR one partner is held on a chip, and binding of the other changes the refractive index at the surface.)

For test [2], the target named is T2, recombinant PD-1 extracellular domain Fc fusion protein (PD-1 Fc) (human, biotin label (sites not given) in the ELISA binding assay; unlabelled when coated in the ligand blocking assay).
T2 construct: also called human PD-1Fc; human PD-1
As to the kind of experiment: ligand binding blocking ELISA as in Example 2, competitor biotin-labeled PD-L1. The procedure:
In this experiment, a 96-well plate was coated with a PD-1 protein with the extracellular domain fused with FC (PD-1-FC), and incubated with the test PD-1 antibody; later biotin-labeled PD-L1 was added for incubation. After washing the plate, the binding amount of biotin-labeled PD-L1 was detected; the blocking IC₅₀ value of PD-1 antibody for ligand PD-L1 binding was calculated.
PD-1-FC was diluted to 1 μg/ml with PH 9.6 CB buffer (1.59 g Na₂CO₃ and 2.93 g NaHCO₃ were dissolved in 1 L of distilled water), pipetted into a 96-well plate at 100 μl/well and standed for 16 h-20 h at 4° C. The 96-well plate was washed once with PBST (PH7.4 PBS, containing 0.05% tweeen20) after PBS buffer was removed, then the plate was incubated and blocked for 1 h at room temperature with 120 μl/well PBST/1% milk. After removal of the blocking solution, the plate was washed with PBST buffer once, followed by addition of 90 μl of test PD-1 antibody which was diluted to a suitable concentration with sample diluents (PH7.4 PBS containing 5% BSA, 0.05% Tween20), and incubated for 1 h at 4° C. Then 10× concentrations of biotin-labeled PD-L1 (Beijing Sino Biological Inc.) (10 μg/ml) was added to the plate at 10 μl/well, oscillated and mixed by an oscillator, and incubated at 37° C. for 1 h. After removal of the reaction system, the plate was washed for 6 times with PBST buffer, followed by addition of 100 ul/well Streptavidin-Peroxidase Polymer which was diluted by PBST at a ratio of 1:400, and incubated under oscillation for 50 min at room temperature. After being washed with PBST for 6 times, the plate was added with 100 μl/well TMB, and incubated for 5-10 min at room temperature. Then the reaction was terminated with addition of 100 μl/well 1M H₂SO₄. The absorbance value at 450 nm was read on the NOVOStar microplate reader; the blocking IC₅₀ value of PD-1 for ligand PD-L1 binding was calculated.
as §1
(In general: In an ELISA, binding on a coated surface is turned into a signal by an enzyme label.)

Test [3] concerns the target T2, recombinant PD-1 extracellular domain …. As to the kind of experiment: ELISA as in Example 2, biotinylated PD-1 Fc captured on avidin. As to the method:
The PD-1 antibody blocks signaling pathway of PD-1 and its ligand by binding to PD-1 extracellular domain. In vitro ELISA assay is used to detect the binding property of the PD-1 antibody. Biotinylated PD-1 extracellular domain FC fusion protein (PD-1 FC) is coated onto 96-well plates by binding to neutralization avidin. Signal intensity after the addition of the antibody is used to determine the binding property of the antibody and PD-1.
Neutralization avidin (binding to biotin) was diluted to 1 μl/ml with PBS buffer, pipetted into a 96-well plate with at 100 μl/well and standed for 16 h-20 h at 4° C. The 96-well plate was washed once with PBST (PH7.4 PBS, containing 0.05% tweeen20) after PBS buffer was removed, then the plate was incubated and blocked for 1 h at room temperature with addition of 120 μl/well PBST/1% milk. After removal of the blocking solution, the plate was washed with PBST buffer, followed by addition of 1 μg/ml biotin-labeled PD1-FC which was diluted by PBST/1% milk, and incubated for 1 h at room temperature. After removal of the blocking solution, the plate was washed with PBST buffer for 3 times, followed by addition of the test PD-1 antibody which was diluted to a suitable concentration by PBST/1% milk, and incubated for 1.5 h at room temperature. After removal of reaction system, the plate was washed for 3 times with PBST buffer, followed by addition of 100 μl/well HRP-labeled anti-murine secondary antibody (The Jackson Laboratory) which was diluted by PBST/1% milk, and incubated for 1 h at room temperature. After being washed with PBST for three times, the plate was added with 100 μl/well TMB, and incubated for 5-10 min at room temperature. Then the reaction was terminated with addition of 100μ/well 1M H₂SO₄. The absorbance value at 450 nm was read on NOVOStar microplate reader; the ELISA binding EC₅₀ value was calculated.
as §1

B1: humanized antibody H005-1 (antibody, human IgG4 S228P, kappa, F234A L235A, V domains shown)
VH: EVQLVESGGGLVQPGGSLRLSCAASGFTFSSYMMSWVRQAPGKGLEWVATISGGGANTYYPDSVKGRFTISRDNAKNSLYLQMNSLRAEDTAVYYCARQLYYFDYWGQGTTVTVSS
VL: DIQMTQSPSSLSASVGDRVTITCLASQTIGTWLTWYQQKPGKAPKLLIYTATSLADGVPSRFSGSGSGTDFTLTISSLQPEDFATYYCQQVYSIPWTFGGGTKVEIKR
notes: CDR graft of mAb005 on IgHV3-7/JH6 and IGKV1-39/JK4, IgG4 constant region; expressed in HEK293 cells; also called PD-1 antibody H005-1
In the case of B1, the Kd in test [1] was 2.79 nM. For the same molecule, the IC50 in test [2] was 1.27 nM. The EC50 in test [3] was found to be 0.11 nM.

B2: humanized antibody H005-4 (antibody, human IgG4 S228P, kappa, F234A L235A, name in Kabat numbering, V domains shown)
VH: EVQLVESGGGLVQPGGSLRLSCAASGFTFSSYMMSWVRQAPGKRLEWVATISGGGANTYYPDSVKGRFTISRDNAKNSLYLQMNSLRAEDTAVYYCARQLYYFDYWGQGTTVTVSS
VL: DIQMTQSPSSLSASVGDRVTITCLASQTIGTWLTWYQQKPGKSPKLLIYTATSLADGVPSRFSGSGSGTDFTLTISSLQPEDFATYYCQQVYSIPWTFGGGTKVEIKR
notes: Back-mutated variant of H005-1, IgG4 constant region
B2 showed a Kd in test [1] of 3.89 nM. The concentration for half-maximal inhibition (IC50) in test [2] was 1.36 nM. Also, in test [3], the EC50 was 0.14 nM.

B3: humanized antibody H005-2 (antibody, human IgG4 S228P, kappa, F234A L235A, name in Kabat numbering, V domains shown)
VH: EVQLVESGGGLVQPGGSLRLSCAASGFTFSSYMMSWVRQAPGKRLEWVATISGGGANTYYPDSVKGRFTISRDNAKNSLYLQMNSLRAEDTAVYYCARQLYYFDYWGQGTTVTVSS
VL: DIQMTQSPSSLSASVGDRVTITCLASQTIGTWLTWYQQKPGKAPKLLIYTATSLADGVPSRFSGSGSGTDFTLTISSLQPEDFATYYCQQVYSIPWTFGGGTKVEIKR
notes: as for B2
B3: in test [1], the dissociation constant (Kd) came out at 2.98 nM. In addition, the IC50 in test [2] worked out at 1.27 nM. Moreover, in test [3], the EC50 is 0.14 nM.

B4: humanized antibody H005-3 (antibody, human IgG4 S228P, kappa, F234A L235A, name in Kabat numbering, V domains shown)
VH: EVQLVESGGGLVQPGGSLRLSCAASGFTFSSYMMSWVRQAPGKGLEWVATISGGGANTYYPDSVKGRFTISRDNAKNSLYLQMNSLRAEDTAVYYCARQLYYFDYWGQGTTVTVSS
VL: DIQMTQSPSSLSASVGDRVTITCLASQTIGTWLTWYQQKPGKSPKLLIYTATSLADGVPSRFSGSGSGTDFTLTISSLQPEDFATYYCQQVYSIPWTFGGGTKVEIKR
notes: as for B2
For B4, in test [1], binding was characterised by a dissociation constant (Kd) of 2.45 nM. The IC50 in test [2] was found to be 1.33 nM. In addition, the EC50 in test [3] was found to be 0.15 nM.
